Data taken from article PMC10108556 (Antibody Therapeutics, 2023).

Key:
[1] = biological target: T1, SARS-CoV-2 RBD domain (residues 319–541) with C-terminal twin-strep-tag II (SARS-CoV-2 Wuhan-Hu-1 (MN908947), UniProt P0DTC2); assay: crystal structure
RBD-his = RBD-his (SARS-CoV-2, UniProt P0DTC2); assay: AlphaScreen or HTRF
[2] = biological target: T1, SARS-CoV-2 RBD domain (residues …); assay: cryo-EM structure
[3] = biological target: T2, SARS-CoV-2 RBD domain (residues 319-541) (SARS-CoV-2 Wuhan-Hu-1 (MN908947), UniProt P0DTC2); assay: crystal structure
[4] = biological target: T2, SARS-CoV-2 RBD domain (residues 319-541); assay: cryo-EM structure

B1: A8–1 Fab (Fab, V domains shown)
VH: EVQLVESGGGLIQPGGSLRLSCAASGLTVSSNYMTWVRQAPGKGLEWVSVIYSGGSTFYAESVKGRFTISRDNSKNTLYLQMNSLRAEDTAVYYCARDLVVYGMDVWGQGTTVIVSS
VL: IQLTQSPSFLSASVGDRVTITCRASQGISSDLAWYQQKPGKAPKLLIYAASTLQSGVPSRFSGSGSGTEFTLTISSLQPEDFATYYCQQLNSHPLAFGPGTKVDIK
- binding result [1]: binds

B2: nAb A34–2 (antibody, V domains shown)
VH: EVQLVESGGGLVQPGRSLRLSCAASGFTFDESAMHWVRQAPGEGLEWVSGISWNSGRIAYADSVRGRFTISRDNAKNSLYLQMNSLRAEDTALYFCALTTSGWFSFDYWGQGTLVTVSS
VL: SYVLTQPPSVSVAPGKTARITCGGNNIGSKSVHWYQQKPGQAPVPVIYYDSDRPSGIPERFSGSNSGNTATLTISRVEVGDEADYYCQVWDSSSDRAVFGGGTTLTVL
- binding result (RBD-his): binds

B3: A5–10 Fab (Fab, V domains shown)
VH: EVQLLESGGGLVQPGGSLRLSCAASGFTFSSYAMSWVRQAPGKGLEWVSAIVGSGGSTYYADSVKGRFIISRDNSKNTLYLQMNSLRAEDTAVYYCAKSLIYGHYDILTGAYYFDYWGQGTLVTVSS
VL: AQMTQSPSSVSASVGDRVTIPCRASQGIGNWLAWYQQKPGKAPKLLIYAASSLQSGVPSRFSGSGSGTDFTLTISSLQPEDFATYYCQQANSFPPFGQGTRLEIK
- binding result [2]: binds

B4: A34–2 Fab (Fab, V domains shown)
VH: EVQLVESGGGLVQPGRSLRLSCAASGFTFDESAMHWVRQAPGEGLEWVSGISWNSGRIAYADSVRGRFTISRDNAKNSLYLQMNSLRAEDTALYFCALTTSGWFSFDYWGQGTLVTVSS
VL: SYVLTQPPSVSVAPGKTARITCGGNNIGSKSVHWYQQKPGQAPVPVIYYDSDRPSGIPERFSGSNSGNTATLTISRVEVGDEADYYCQVWDSSSDRAVFGGGTTLTVL
- binding result [2]: binds

B5: nAb A8–1 (antibody, V domains shown)
VH: EVQLVESGGGLIQPGGSLRLSCAASGLTVSSNYMTWVRQAPGKGLEWVSVIYSGGSTFYAESVKGRFTISRDNSKNTLYLQMNSLRAEDTAVYYCARDLVVYGMDVWGQGTTVIVSS
VL: IQLTQSPSFLSASVGDRVTITCRASQGISSDLAWYQQKPGKAPKLLIYAASTLQSGVPSRFSGSGSGTEFTLTISSLQPEDFATYYCQQLNSHPLAFGPGTKVDIK
- binding result (RBD-his): binds

B6: nAb A5–10 (antibody, V domains shown)
VH: EVQLLESGGGLVQPGGSLRLSCAASGFTFSSYAMSWVRQAPGKGLEWVSAIVGSGGSTYYADSVKGRFIISRDNSKNTLYLQMNSLRAEDTAVYYCAKSLIYGHYDILTGAYYFDYWGQGTLVTVSS
VL: AQMTQSPSSVSASVGDRVTIPCRASQGIGNWLAWYQQKPGKAPKLLIYAASSLQSGVPSRFSGSGSGTDFTLTISSLQPEDFATYYCQQANSFPPFGQGTRLEIK
- binding result (RBD-his): binds

B7: A8-1 Fab (Fab, V domains shown)
VH: EVQLVESGGGLIQPGGSLRLSCAASGLTVSSNYMTWVRQAPGKGLEWVSVIYSGGSTFYAESVKGRFTISRDNSKNTLYLQMNSLRAEDTAVYYCARDLVVYGMDVWGQGTTVIVSS
VL: IQLTQSPSFLSASVGDRVTITCRASQGISSDLAWYQQKPGKAPKLLIYAASTLQSGVPSRFSGSGSGTEFTLTISSLQPEDFATYYCQQLNSHPLAFGPGTKVDIK
- binding result [3]: binds

B8: A5-10 Fab (Fab, V domains shown)
VH: EVQLLESGGGLVQPGGSLRLSCAASGFTFSSYAMSWVRQAPGKGLEWVSAIVGSGGSTYYADSVKGRFIISRDNSKNTLYLQMNSLRAEDTAVYYCAKSLIYGHYDILTGAYYFDYWGQGTLVTVSS
VL: AQMTQSPSSVSASVGDRVTIPCRASQGIGNWLAWYQQKPGKAPKLLIYAASSLQSGVPSRFSGSGSGTDFTLTISSLQPEDFATYYCQQANSFPPFGQGTRLEIK
- binding result [4]: binds

B9: A34-2 Fab (Fab, V domains shown)
VH: EVQLVESGGGLVQPGRSLRLSCAASGFTFDESAMHWVRQAPGEGLEWVSGISWNSGRIAYADSVRGRFTISRDNAKNSLYLQMNSLRAEDTALYFCALTTSGWFSFDYWGQGTLVTVSS
VL: SYVLTQPPSVSVAPGKTARITCGGNNIGSKSVHWYQQKPGQAPVPVIYYDSDRPSGIPERFSGSNSGNTATLTISRVEVGDEADYYCQVWDSSSDRAVFGGGTTLTVL
- binding result [4]: binds
